Source: patent US20210277140A1 (University of California, published 2021)
No end group written: not given here.

Key:
SNAP-Syk tSH2 [1] = biological target: T1, SNAP-Syk tSH2 (mouse, UniProt P48025 1-262); experiment: liposome-based fluorescence quenching (FRET) assay; His10-FcRγ on NiNTA liposomes phosphorylated by Lck, 100 nM SNAP-505 Syk tSH2, receptor titrated 0-500 nM; apparent Kd, one site specific binding fit
Protocol: (§1) Experiments were carried out as previously described (Alvey C M et al., Current Biology 27:2065-2077, 2017). Briefly, proteins were purified using a bacterial expression system. All protein components (1 mg/ml BSA, 100 nM tSH2-Syk SNAP-505, 0 to 500 nM His10-CD3ζ or His10-FcRγ intracellular chain, and 7.2 nM His10-Lck Y505F) were mixed into kinase buffer (50 mM HEPES-NaOH pH 6.8, 150 mM NaCl, 10 mM MgCl₂, and 1 mM TCEP). Liposomes prepared at the following molar ratios: 74.5% POPC (Avanti, Catalog #850457C), 10% DOGS-NTA (Nickel) (Avanti, Catalog #790404C, 0.5% Rhodamine PE (Avanti, Catalog #810150C), and 15% DOPS (Avanti, Catalog #840035C) were added and the mixture was incubated for 40-60 minutes at room temperature, during which the SNAP-505 fluorescence was monitored at 8 s intervals with 504 nm excitation and 540 nm emission. 1 mM ATP was then injected to trigger Lck mediated phosphorylation of CD3ζ or FcRγ. Injection was followed by 5 seconds of automatic shaking of the plate, and the fluorescence was further monitored at 8 s intervals for at least 1 hr. Data were normalized by setting the average fluorescence value of the last 10 data points before ATP addition as 100% and background fluorescence as 0%. […]

SNAP-Syk tSH2 [2] = biological target: T1, SNAP-Syk tSH2; experiment: liposome-based fluorescence quenching assay: SNAP-505-labelled Syk tSH2 reporter, rhodamine-PE liposomes carrying His10-receptor tail (0 to 500 nM) phosphorylated by His10-Lck Y505F after ATP; Kd ± SE from a one-site specific binding fit
Protocol: as §1

B1: His10-FcRγ (other, human)
chain: HHHHHHHHHHRLKIQVRKAAITSYEKSDGVYTGLSTRNQETYETLKHEKPP
modifications: not fully specified
notes: range 45-85; titrated 0 to 500 nM; also called His10-FcRγ intracellular chain; His10-FcRγ-chain
Kd (SNAP-Syk tSH2 [1]): ~30 nM | Kd (SNAP-Syk tSH2 [2]): 31.2 nM
